Source: patent US9221867B2, “Method for transporting a compound across the blood-brain barrier” (Angiochem Inc., priority 2003, dated 2015)

Assays:
[1] = system: bovine brain capillary endothelial cells (BBCECs); assay: Transcytosis of 125I-proteins across BBCEC monolayers (in vitro blood-brain barrier model); conditions: for Transcytosis: across in vitro BBB model; for Ratios Aprotinin/Protein / Ratios (x-fold), 125I-proteins transcytosis across BBCEC monolayers: aprotinin transcytosis divided by that of the named protein; for Ratios (x-fold), 125I-proteins transcytosis across BBCEC monolayers: 250 nM
Protocol: The model consists of a co-culture of bovine brain capillary endothelial cells and rat glial cells.
The in vitro model of BBB was established by using a co-culture of BBCECs and astrocytes. Prior to cell culture, plate inserts (Millicell-PC 3.0 μM; 30-mm diameter) were coated on the upper side with rat tail collagen. They were then set in six-well microplates containing the astrocytes and BBCECs were plated on the upper side of the filters in 2 mL of co-culture medium. This BBCEC medium was changed three times a week. Under these conditions, differentiated BBCECs formed a confluent monolayer 7 days later. Experiments were performed between 5 and 7 days after confluence was reached. The permeability coefficient for sucrose was measured to verify the endothelial permeability.
Briefly, after removing the meninges, the brain tissue was forced gently through a 82 μm nylon sieve. Astrocytes were plated on six-well microplates at a concentration of 1.2×10^5 cells/mL in 2 mL of optimal culture medium (DMEM) supplemented with 10% heat inactivated fetal bovine serum. The medium was changed twice a week.
Bovine brain capillary endothelial cells (BBCECs) were obtained from Cellial Technologies. The cells were cultured in the presence of DMEM medium supplemented with 10% (v/v) horse serum and 10% heat-inactivated calf serum, 2 mM of glutamine, 50 μg/mL of gentamycin, and 1 ng/mL of basic fibroblast growth factor, added every other day.
One insert covered with BBCECs was set into a six-well microplate with 2 mL of Ringer-Hepes and was pre-incubated for 2 h at 37° C. [^125I]-aprotinin, [^125I]-p97, [^125I]-ceruloplasmin or [^125I]-transferrin (250 nM final concentration) was added to the upper side of the filter covered with cells. At various times, the insert was transferred to another well to avoid a possible reendocytosis of [^125I]-proteins by the abluminal side of the BBCECs. At the end of experiment, [^125I]-proteins were assessed in 500 μL of the lower chamber of well by TCA precipitation.
Aprotinin, p97 and bovine holo-transferrin were iodinated with standard procedures using iodo-beads from Sigma™. Bovine holo-transferrin was diluted in 0.1M phosphate buffer, pH 6.5 (PB). P97 obtained from Synapse Technologies in neutralized citrate at pH 7.0 was dialyzed against this PB. Two iodo-beads were used for each protein. These beads were washed twice with 3 mL of PB on a Whatman™ filter and resuspended in 60 μL of PB. ^125I (1 mCi) from Amersham-Pharmacia biotech was added to the bead suspension for 5 minutes at room temperature. The iodination for each protein was initiated by the addition of 100 μg (80-100 μL).

[2] = system: endothelial cell monolayers (in vitro blood-brain barrier model); assay: Permeability coefficient (Pe) of proteins in the in vitro blood-brain barrier model
Protocol: The permeability coefficient (Pe) was calculated as:
At the end of the experiments, amounts of the radiotracers in the basolateral compartment were measured in a liquid scintillation counter. The permeability coefficient (Pe) for sucrose was calculated as previously described (Dehouck, M. P., Jolliet-Riant, P., Brée, F., Fruchart, J. C., Cecchelli, R., Tillement, J. P., J. Neurochem. 58:1790-1797, 1992) using filters coated or non-coated with EC.
The transport of Angio-pep1 from the apical-to-basolateral side of inserts covered with or without endothelial cell monolayers was measured. The results are expressed as the clearance of Angio-pep1 as a function of time. The slopes correspond to the permeability of the peptide through the filter alone (Psf) and to the total permeability of the endothelial cell monolayers (Pst).
The permeability coefficients for Angio-pep1, aprotinin, leptin and transferrin were determined using the in vitro blood-brain barrier model. The permeability coefficient (Pe) was calculated as described above.

| Molecule | Transcytosis [1] [pmol/h/cm^2] | Ratios Aprotinin/Protein [1] | Ratios (x-fold), 125I-proteins transcytosis across BBCEC monolayers [1] [x-fold] | Ratios (permeability coefficients) ([2]; Pe of Angio-pep1 divided by Pe of the named protein) | Permeability coefficient (Pe) ([2]; in vitro blood-brain barrier model) [×10⁻⁶ cm/s] | effect on aprotinin transcytosis ([1]; [125I]-aprotinin 250 nM with or without RAP, 37° C., FIG. 14) |
| --- | --- | --- | --- | --- | --- | --- |
| Lactoferrin: comparison protein in transcytosis experiment (protein, UniProt P02788 20-710, looked up) Lactotransferrin: GRRRSVQWCAVSQPEATKCFQWQRNMRKVRGPPVSCIKRDSPIQCIQAIAENRADAVTLDGGFIYEAGLAPYKLRPVAAEVYGTERQPRTHYYAVAVVKKGGSFQLNELQGLKSCHTGLRRTAGWNVPIGTLRPFLNWTGPPEPIEAAVARFFSASCVPGADKGQFPNLCRLCAGTGENKCAFSSQEPYFSYSGAFKCLRDGAGDVAFIRESTVFEDLSDEAERDEYELLCPDNTRKPVDKFKDCHLARVPSHAVVARSVNGKEDAIWNLLRQAQEKFGKDKSPKFQLFGSPSGQKDLLFKDSAIGFSRVPPRIDSGLYLGSGYFTAIQNLRKSEEEVAARRARVVWCAVGEQELRKCNQWSGLSEGSVTCSSASTTEDCIALVLKGEADAMSLDGGYVYTAGKCGLVPVLAENYKSQQSSDPDPNCVDRPVEGYLAVAVVRRSDTSLTWNSVKGKKSCHTAVDRTAGWNIPMGLLFNQTGSCKFDEYFSQSCAPGSDPRSNLCALCIGDEQGENKCVPNSNERYYGYTGAFRCLAENAGDVAFVKDVTVLQNTDGNNNEAWAKDLKLADFALLCLDGKRKPVTEARSCHLAMAPNHAVVSRMDKVERLKQVLLHQQAKFGRNGSDCPDKFCLFQSETKNLLFNDNTECLARLHGKTTYEKYLGPQYVAGITNLKKCSTSPLLEACEFLRK | 0.05 | 50 | – | – | – | – |
| ceruloplasmin: comparison protein in transcytosis experiments (protein, UniProt P00450 20-1065, looked up) Ceruloplasmin: KEKHYYIGIIETTWDYASDHGEKKLISVDTEHSNIYLQNGPDRIGRLYKKALYLQYTDETFRTTIEKPVWLGFLGPIIKAETGDKVYVHLKNLASRPYTFHSHGITYYKEHEGAIYPDNTTDFQRADDKVYPGEQYTYMLLATEEQSPGEGDGNCVTRIYHSHIDAPKDIASGLIGPLIICKKDSLDKEKEKHIDREFVVMFSVVDENFSWYLEDNIKTYCSEPEKVDKDNEDFQESNRMYSVNGYTFGSLPGLSMCAEDRVKWYLFGMGNEVDVHAAFFHGQALTNKNYRIDTINLFPATLFDAYMVAQNPGEWMLSCQNLNHLKAGLQAFFQVQECNKSSSKDNIRGKHVRHYYIAAEEIIWNYAPSGIDIFTKENLTAPGSDSAVFFEQGTTRIGGSYKKLVYREYTDASFTNRKERGPEEEHLGILGPVIWAEVGDTIRVTFHNKGAYPLSIEPIGVRFNKNNEGTYYSPNYNPQSRSVPPSASHVAPTETFTYEWTVPKEVGPTNADPVCLAKMYYSAVEPTKDIFTGLIGPMKICKKGSLHANGRQKDVDKEFYLFPTVFDENESLLLEDNIRMFTTAPDQVDKEDEDFQESNKMHSMNGFMYGNQPGLTMCKGDSVVWYLFSAGNEADVHGIYFSGNTYLWRGERRDTANLFPQTSLTLHMWPDTEGTFNVECLTTDHYTGGMKQKYTVNQCRRQSEDSTFYLGERTYYIAAVEVEWDYSPQREWEKELHHLQEQNVSNAFLDKGEFYIGSKYKKVVYRQYTDSTFRVPVERKAEEEHLGILGPQLHADVGDKVKIIFKNMATRPYSIHAHGVQTESSTVTPTLPGETLTYVWKIPERSGAGTEDSACIPWAYYSTVDQVKDLYSGLIGPLIVCRRPYLKVFNPRRKLEFALLFLVFDENESWYLDDNIKTYSDHPEKVNKDDEEFIESNKMHAINGRMFGNLQGLTMHVGDEVNWYLMGMGNEIDLHTVHFHGHSFQYKHRGVYSSDVFDIFPGTYQTLEMFPRTPGIWLLHCHVTDHIHAGMETTYTVLQNEDTKSG | – | – | 44.0 | – | – | – |
| Transferrin: comparison protein, bovine holo-transferrin (protein, UniProt Q29443 20-704, looked up, holo (iron-loaded)) Serotransferrin: DPERTVRWCTISTHEANKCASFRENVLRILESGPFVSCVKKTSHMDCIKAISNNEADAVTLDGGLVYEAGLKPNNLKPVVAEFHGTKDNPQTHYYAVAVVKKDTDFKLNELRGKKSCHTGLGRSAGWNIPMAKLYKELPDPQESIQRAAANFFSASCVPCADQSSFPKLCQLCAGKGTDKCACSNHEPYFGYSGAFKCLMEGAGDVAFVKHSTVFDNLPNPEDRKNYELLCGDNTRKSVDDYQECYLAMVPSHAVVARTVGGKEDVIWELLNHAQEHFGKDKPDNFQLFQSPHGKDLLFKDSADGFLKIPSKMDFELYLGYEYVTALQNLRESKPPDSSKDECMVKWCAIGHQERTKCDRWSGFSGGAIECETAENTEECIAKIMKGEADAMSLDGGYLYIAGKCGLVPVLAENYKTEGESCKNTPEKGYLAVAVVKTSDANINWNNLKDKKSCHTAVDRTAGWNIPMGLLYSKINNCKFDEFFSAGCAPGSPRNSSLCALCIGSEKGTGKECVPNSNERYYGYTGAFRCLVEKGDVAFVKDQTVIQNTDGNNNEAWAKNLKKENFEVLCKDGTRKPVTDAENCHLARGPNHAVVSRKDKATCVEKILNKQQDDFGKSVTDCTSNFCLFQSNSKDLLFRDDTKCLASIAKKTYDSYLGDDYVRAMTNLRQCSTSKLLEACTFHKP | 0.14 | 19 | 11.6 | 210 | 0.095 | – |
| receptor-associated protein (RAP): LRP antagonist, receptor-associated protein (protein, UniProt P30533 35-357, looked up) Alpha-2-macroglobulin …: YSREKNQPKPSPKRESGEEFRMEKLNQLWEKAQRLHLPPVRLAELHADLKIQERDELAWKKLKLDGLDEDGEKEARLIRNLNVILAKYGLDGKKDARQVTSNSLSGTQEDGLDDPRLEKLWHKAKTSGKFSGEELDKLWREFLHHKEKVHEYNVLLETLSRTEEIHENVISPSDLSDIKGSVLHSRHTELKEKLRSINQGLDRLRRVSHQGYSTEAEFEEPRVIDLWDLAQSANLTDKELEAFREELKHFEAKIEKHNHYQKQLEIAHEKLRHAESVGDGERVSRSREKHALLEGRTKELGYTVKKHLQDLSGRISRARHNEL | – | – | – | – | – | inhibition |
| Melanotransferrin (p97): comparison protein, p97 obtained from Synapse Technologies (protein, UniProt P08582 20-709, looked up) Melanotransferrin: GMEVRWCATSDPEQHKCGNMSEAFREAGIQPSLLCVRGTSADHCVQLIAAQEADAITLDGGAIYEAGKEHGLKPVVGEVYDQEVGTSYYAVAVVRRSSHVTIDTLKGVKSCHTGINRTVGWNVPVGYLVESGRLSVMGCDVLKAVSDYFGGSCVPGAGETSYSESLCRLCRGDSSGEGVCDKSPLERYYDYSGAFRCLAEGAGDVAFVKHSTVLENTDGKTLPSWGQALLSQDFELLCRDGSRADVTEWRQCHLARVPAHAVVVRADTDGGLIFRLLNEGQRLFSHEGSSFQMFSSEAYGQKDLLFKDSTSELVPIATQTYEAWLGHEYLHAMKGLLCDPNRLPPYLRWCVLSTPEIQKCGDMAVAFRRQRLKPEIQCVSAKSPQHCMERIQAEQVDAVTLSGEDIYTAGKTYGLVPAAGEHYAPEDSSNSYYVVAVVRRDSSHAFTLDELRGKRSCHAGFGSPAGWDVPVGALIQRGFIRPKDCDVLTAVSEFFNASCVPVNNPKNYPSSLCALCVGDEQGRNKCVGNSQERYYGYRGAFRCLVENAGDVAFVRHTTVFDNTNGHNSEPWAAELRSEDYELLCPNGARAEVSQFAACNLAQIPPHAVMVRPDTNIFTVYGLLDKAQDLFGDDHNKNGFKMFDSSNYHGQDLLFKDATVRAVPVGEKTTYRGWLGLDYVAALEGMSSQQC | 0.28 | 10 | 8.2 | – | – | – |
